Laboratory results: US20260098059A1 (ENDOMET BIOSCIENCES, published 2026)
“And” between values parts separate entries of the source, which are not always exact repeats. Equal entries are not always repeated. Bridges are numbered along the chain shown (N, C = ends). Where no end group is shown, it is not given here. [ ]: non-standard residue; d: D form. NMeW = CN[C@@H](Cc1c[nH]c2ccccc12)C(=O)O; Chg = N[C@H](C(=O)O)C1CCCCC1; αMeV = CC(C)[C@](C)(N)C(=O)O; αMeS = C[C@](N)(CO)C(=O)O; NMeA = CN[C@@H](C)C(=O)O

T1: β-catenin (UniProt P35222 134-665, limits assumed, biotinylated in the SPR and plate assays)
T1 construct: also called beta catenin; biotinylated β-catenin
T1 sequence (looked up): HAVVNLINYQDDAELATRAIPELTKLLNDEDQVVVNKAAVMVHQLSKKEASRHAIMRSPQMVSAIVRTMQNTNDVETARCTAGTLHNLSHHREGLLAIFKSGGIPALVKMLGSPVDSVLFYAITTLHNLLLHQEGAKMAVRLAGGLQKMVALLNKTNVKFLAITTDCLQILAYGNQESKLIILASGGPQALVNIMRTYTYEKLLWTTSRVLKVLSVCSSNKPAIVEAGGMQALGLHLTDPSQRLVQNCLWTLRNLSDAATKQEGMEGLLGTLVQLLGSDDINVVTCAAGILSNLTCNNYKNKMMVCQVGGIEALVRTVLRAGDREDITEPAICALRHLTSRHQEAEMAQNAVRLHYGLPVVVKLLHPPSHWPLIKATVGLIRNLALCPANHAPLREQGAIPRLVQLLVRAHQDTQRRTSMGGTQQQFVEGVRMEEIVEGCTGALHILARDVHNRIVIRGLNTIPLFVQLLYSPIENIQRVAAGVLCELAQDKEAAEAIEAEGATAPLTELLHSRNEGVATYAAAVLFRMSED


Experiments:
[1] = biological target: T1, β-catenin; experiment: competitive FP
Outline: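 Competitive fluorescence polarization with inhibitor peptide serially diluted from 10 nM to 30 uM; polarization read at 470 nm excitation, 520 nm emission. Experiments performed three times.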

[2] = biological target: T1, β-catenin; experiment: cell-based or functional assay

Binder | Kd [1] | Wnt Reporter EC50 [2] | Proliferation IC50, Endo cells [2] [µM] | Proliferation IC50, Wnt dependent cells [2] [µM]
KWGLIXAWD (HELM PEPTIDE1{[ac].K.W.[O=C([C@@H](N[*:1])C1CCCCC1)[*:2]].L.I.[Abu].A.W.D}$PEPTIDE1,PEPTIDE1,2:R3-10:R3$$$V2.0; SMILES CC[C@@H]1NC(=O)[C@H]([C@@H](C)CC)NC(=O)[C@H](CC(C)C)NC(=O)[C@H](C2CCCCC2)NC(=O)[C@H](Cc2c[nH]c3ccccc23)NC(=O)[C@@H](NC(C)=O)CCCCNC(=O)C[C@@H](C(=O)O)NC(=O)[C@H](Cc2c[nH]c3ccccc23)NC(=O)[C@H](C)NC1=O) [SEQ ID NO: 262] | > 0.4 µM and ≤ 1 µM |  | 26.3 | 5
WAQKILDEHGQRVWG (HELM PEPTIDE1{[ac].W.[meA].Q.K.I.L.D.E.H.[O=C([C@@H](N[*:1])C1CCCCC1)[*:2]].Q.R.V.W.G.[am]}$PEPTIDE1,PEPTIDE1,5:R3-9:R3$$$V2.0; SMILES CC[C@H](C)[C@@H]1NC(=O)[C@@H](NC(=O)[C@H](CCC(N)=O)NC(=O)[C@H](C)N(C)C(=O)[C@H](Cc2c[nH]c3ccccc23)NC(C)=O)CCCCNC(=O)CC[C@@H](C(=O)N[C@@H](Cc2c[nH]cn2)C(=O)N[C@H](C(=O)N[C@@H](CCC(N)=O)C(=O)N[C@@H](CCCNC(=N)N)C(=O)N[C@H](C(=O)N[C@@H](Cc2c[nH]c3ccccc23)C(=O)NCC(N)=O)C(C)C)C2CCCCC2)NC(=O)[C@H](CC(=O)O)NC(=O)[C@H](CC(C)C)NC1=O) [SEQ ID NO: 404] | ≤ 0.4 µM | > 30 µM |  | 
WAQKILDEHVQRVWG (HELM PEPTIDE1{W.[meA].Q.K.I.L.D.E.H.V.Q.R.V.W.G.[am]}$PEPTIDE1,PEPTIDE1,4:R3-8:R3$$$V2.0; SMILES CC[C@H](C)[C@@H]1NC(=O)[C@@H](NC(=O)[C@H](CCC(N)=O)NC(=O)[C@H](C)N(C)C(=O)[C@@H](N)Cc2c[nH]c3ccccc23)CCCCNC(=O)CC[C@@H](C(=O)N[C@@H](Cc2c[nH]cn2)C(=O)N[C@H](C(=O)N[C@@H](CCC(N)=O)C(=O)N[C@@H](CCCNC(=N)N)C(=O)N[C@H](C(=O)N[C@@H](Cc2c[nH]c3ccccc23)C(=O)NCC(N)=O)C(C)C)C(C)C)NC(=O)[C@H](CC(=O)O)NC(=O)[C@H](CC(C)C)NC1=O) [SEQ ID NO: 401] | > 0.4 µM and ≤ 1 µM | > 30 µM |  | 
WAQKILNEHGQRVWG (HELM PEPTIDE1{[ac].W.[meA].Q.K.I.L.N.E.H.[O=C([C@@H](N[*:1])C1CCCCC1)[*:2]].Q.R.V.W.G.[am]}$PEPTIDE1,PEPTIDE1,5:R3-9:R3$$$V2.0; SMILES CC[C@H](C)[C@@H]1NC(=O)[C@@H](NC(=O)[C@H](CCC(N)=O)NC(=O)[C@H](C)N(C)C(=O)[C@H](Cc2c[nH]c3ccccc23)NC(C)=O)CCCCNC(=O)CC[C@@H](C(=O)N[C@@H](Cc2c[nH]cn2)C(=O)N[C@H](C(=O)N[C@@H](CCC(N)=O)C(=O)N[C@@H](CCCNC(=N)N)C(=O)N[C@H](C(=O)N[C@@H](Cc2c[nH]c3ccccc23)C(=O)NCC(N)=O)C(C)C)C2CCCCC2)NC(=O)[C@H](CC(N)=O)NC(=O)[C@H](CC(C)C)NC1=O) [SEQ ID NO: 435] | ≤ 0.4 µM | > 30 µM |  | 
WAQKILDEHVQRVWG (HELM PEPTIDE1{[ac].W.[meA].Q.K.I.L.D.E.H.V.Q.R.V.W.G.[am]}$PEPTIDE1,PEPTIDE1,5:R3-9:R3$$$V2.0; SMILES CC[C@H](C)[C@@H]1NC(=O)[C@@H](NC(=O)[C@H](CCC(N)=O)NC(=O)[C@H](C)N(C)C(=O)[C@H](Cc2c[nH]c3ccccc23)NC(C)=O)CCCCNC(=O)CC[C@@H](C(=O)N[C@@H](Cc2c[nH]cn2)C(=O)N[C@H](C(=O)N[C@@H](CCC(N)=O)C(=O)N[C@@H](CCCNC(=N)N)C(=O)N[C@H](C(=O)N[C@@H](Cc2c[nH]c3ccccc23)C(=O)NCC(N)=O)C(C)C)C(C)C)NC(=O)[C@H](CC(=O)O)NC(=O)[C@H](CC(C)C)NC1=O) [SEQ ID NO: 402] | ≤ 0.4 µM | > 30 µM |  | 
W[NMeA]QKILDDH[Chg]QRVWG-NH2 (lactam 4-8; not fully specified (N-terminus); printed as H23C11C(O)NH-W-NMeA-QK*ILDD*H-Chg-QRVWG-NH2) [SEQ ID NO: 432] | ≤ 0.4 µM | > 7.5 µM and ≤ 15 µM | 0.8 | 14.9
WAQKILDEHGQRVWG (HELM PEPTIDE1{[O=C(O)CCC(=O)[*:2]].W.[meA].Q.K.I.L.D.E.H.[O=C([C@@H](N[*:1])C1CCCCC1)[*:2]].Q.R.V.W.G.[am]}$PEPTIDE1,PEPTIDE1,5:R3-9:R3$$$V2.0; SMILES CC[C@H](C)[C@@H]1NC(=O)[C@@H](NC(=O)[C@H](CCC(N)=O)NC(=O)[C@H](C)N(C)C(=O)[C@H](Cc2c[nH]c3ccccc23)NC(=O)CCC(=O)O)CCCCNC(=O)CC[C@@H](C(=O)N[C@@H](Cc2c[nH]cn2)C(=O)N[C@H](C(=O)N[C@@H](CCC(N)=O)C(=O)N[C@@H](CCCNC(=N)N)C(=O)N[C@H](C(=O)N[C@@H](Cc2c[nH]c3ccccc23)C(=O)NCC(N)=O)C(C)C)C2CCCCC2)NC(=O)[C@H](CC(=O)O)NC(=O)[C@H](CC(C)C)NC1=O) [SEQ ID NO: 405] | ≤ 0.4 µM | > 15 µM and ≤ 22.5 µM |  | 26.8
H-W[NMeW]E[αMeS]ILDEH[αMeV]QRVWG-NH2 [SEQ ID NO: 38] | ≤ 0.4 µM | > 30 µM |  | 

Other lines, results leading:

Kd [1] | Wnt Reporter EC50 [2] | Proliferation IC50, Endo cells [2] [µM] | Proliferation IC50, Wnt dependent cells [2] [µM] | Binder
≤ 0.4 µM | > 30 µM |  |  | WWESILDEHVQRVWG (HELM PEPTIDE1{[meW].[meW].E.S.I.L.D.E.H.V.Q.R.V.W.G.[am]}$$$$V2.0; SMILES CC[C@H](C)[C@H](NC(=O)[C@H](CO)NC(=O)[C@H](CCC(=O)O)NC(=O)[C@H](Cc1c[nH]c2ccccc12)N(C)C(=O)[C@H](Cc1c[nH]c2ccccc12)NC)C(=O)N[C@@H](CC(C)C)C(=O)N[C@@H](CC(=O)O)C(=O)N[C@@H](CCC(=O)O)C(=O)N[C@@H](Cc1c[nH]cn1)C(=O)N[C@H](C(=O)N[C@@H](CCC(N)=O)C(=O)N[C@@H](CCCNC(=N)N)C(=O)N[C@H](C(=O)N[C@@H](Cc1c[nH]c2ccccc12)C(=O)NCC(N)=O)C(C)C)C(C)C) [SEQ ID NO: 37]
≤ 0.4 µM | > 30 µM |  |  | WAQKILDEHGQRVWG (HELM PEPTIDE1{W.[meA].Q.K.I.L.D.E.H.[O=C([C@@H](N[*:1])C1CCCCC1)[*:2]].Q.R.V.W.G.[am]}$PEPTIDE1,PEPTIDE1,4:R3-8:R3$$$V2.0; SMILES CC[C@H](C)[C@@H]1NC(=O)[C@@H](NC(=O)[C@H](CCC(N)=O)NC(=O)[C@H](C)N(C)C(=O)[C@@H](N)Cc2c[nH]c3ccccc23)CCCCNC(=O)CC[C@@H](C(=O)N[C@@H](Cc2c[nH]cn2)C(=O)N[C@H](C(=O)N[C@@H](CCC(N)=O)C(=O)N[C@@H](CCCNC(=N)N)C(=O)N[C@H](C(=O)N[C@@H](Cc2c[nH]c3ccccc23)C(=O)NCC(N)=O)C(C)C)C2CCCCC2)NC(=O)[C@H](CC(=O)O)NC(=O)[C@H](CC(C)C)NC1=O) [SEQ ID NO: 403]
≤ 0.4 µM | > 30 µM |  |  | WAQKILDEHGQRVWR (HELM PEPTIDE1{[ac].W.[meA].Q.K.I.L.D.E.H.[O=C([C@@H](N[*:1])C1CCCCC1)[*:2]].Q.R.V.W.R.[am]}$PEPTIDE1,PEPTIDE1,5:R3-9:R3$$$V2.0; SMILES CC[C@H](C)[C@@H]1NC(=O)[C@@H](NC(=O)[C@H](CCC(N)=O)NC(=O)[C@H](C)N(C)C(=O)[C@H](Cc2c[nH]c3ccccc23)NC(C)=O)CCCCNC(=O)CC[C@@H](C(=O)N[C@@H](Cc2c[nH]cn2)C(=O)N[C@H](C(=O)N[C@@H](CCC(N)=O)C(=O)N[C@@H](CCCNC(=N)N)C(=O)N[C@H](C(=O)N[C@@H](Cc2c[nH]c3ccccc23)C(=O)N[C@@H](CCCNC(=N)N)C(N)=O)C(C)C)C2CCCCC2)NC(=O)[C@H](CC(=O)O)NC(=O)[C@H](CC(C)C)NC1=O) [SEQ ID NO: 449]
≤ 0.4 µM | > 15 µM and ≤ 22.5 µM |  |  | WAQKILDDHGQRVWG (HELM PEPTIDE1{[ac].W.[meA].Q.K.I.L.D.D.H.[O=C([C@@H](N[*:1])C1CCCCC1)[*:2]].Q.R.V.W.G.[am]}$PEPTIDE1,PEPTIDE1,5:R3-9:R3$$$V2.0; SMILES CC[C@H](C)[C@@H]1NC(=O)[C@@H](NC(=O)[C@H](CCC(N)=O)NC(=O)[C@H](C)N(C)C(=O)[C@H](Cc2c[nH]c3ccccc23)NC(C)=O)CCCCNC(=O)C[C@@H](C(=O)N[C@@H](Cc2c[nH]cn2)C(=O)N[C@H](C(=O)N[C@@H](CCC(N)=O)C(=O)N[C@@H](CCCNC(=N)N)C(=O)N[C@H](C(=O)N[C@@H](Cc2c[nH]c3ccccc23)C(=O)NCC(N)=O)C(C)C)C2CCCCC2)NC(=O)[C@H](CC(=O)O)NC(=O)[C@H](CC(C)C)NC1=O) [SEQ ID NO: 430]
≤ 0.4 µM | ≤ 7.5 µM |  |  | W[NMeA]QKILDDH[Chg]QRVWG-NH2 (lactam 4-8; not fully specified (N-terminus); printed as H17C8C(O)NH-W-NMeA-QK*ILDD*H-Chg-QRVWG-NH2) [SEQ ID NO: 431]
